Here are results for 94 variants from the supplement of paper PMC10567573.

B1: PLK2 (parent)
chain: YAELGQCSVFPATDAPEQFISQVT
B2: ADD1 (parent)
chain: GEGTGSPPKWQIGEQEFEALMRML
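Further: lentivirally expressed fusions sorted by FACS into six bins by GFP to DsRed ratio, PSI derived from sequencing read proportions per bin multiplied by bin number.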

Variants of B1 are the subject of one data set. Description: protein stability index of a GFP-peptide fusion (GPS, HEK-293T) (PSI 1-6); higher = more stable. As to conditions: c terminus: a fixed tail appended.
Consider YAELGQCSVFNATDAPEQFISQVT [P11N], for which the protein stability index was 2.2.
On to YAELGQCSVFSATDAPEQFISQVT [P11S], for which the protein stability index is 2.56.
As to YAELGQCSQFPATDAPEQFISQVT [V9Q], the protein stability index was 2.71.
On the same count and under the same terms, next, YAELGQCSHFPATDAPEQFISQVT [V9H]: 2.69.
Same read-out and setting: the same measure for YAELGCCSVFPATDAPEQFISQVT [Q6C]: 1.61.
The same measure, in the same setting: next, YAELGHCSVFPATDAPEQFISQVT [Q6H]: 2.02; YAELGGCSVFPATDAPEQFISQVT [Q6G]: 2.04; YAELGACSVFPATDAPEQFISQVT [Q6A]: 2.18.
With YAELGQCSVFPATDAPIQFISQVT [E17I], the protein stability index amounted to 1.75.
The same measure, in the same setting: next, YAELGQCSVFPATDAPGQFISQVT [E17G]: 2.15; YAELGQCSVFPATAAPEQFISQVT [D14A]: 1.46.
With YAELGQCSVFPATRAPEQFISQVT [D14R], the protein stability index was 1.7.
Still for that read-out and setting: next, YAELGQCSVFPATEAPEQFISQVT [D14E]: 2.05; YAELGQCSVFPATDAPEQFISQGT [V23G]: 2.52; YAELGQCSVFPATDAPEQFISQTT [V23T]: 2.48.
The same measure, in the same setting: next, FAELGQCSVFPATDAPEQFISQVT [Y1F]: 2.24.
The same measure, in the same setting: next, DAELGQCSVFPATDAPEQFISQVT [Y1D]: 4.58.
Take EAELGQCSVFPATDAPEQFISQVT [Y1E]: the protein stability index was determined as 4.52.
Regarding CAELGQCSVFPATDAPEQFISQVT [Y1C], the protein stability index is 3.13.
The same measure, in the same setting: the same measure for YAELGQQSVFPATDAPEQFISQVT [C7Q]: 2.36.
Same read-out and setting: next, YAELGQRSVFPATDAPEQFISQVT [C7R]: 2.57; YAELGQCSVFPATDAPEQFISQVH [T24H]: 2.57.
The same measure, in the same setting: the same measure for YAELGQCSVFPATDAPEQFISQVE [T24E]: 2.33; for YSELGQCSVFPATDAPEQFISQVT [A2S]: 3.15.
Consider YCELGQCSVFPATDAPEQFISQVT [A2C], for which the protein stability index turned out to be 1.92.
Still for that read-out and setting: next, YFELGQCSVFPATDAPEQFISQVT [A2F]: 2.32.
Same read-out and setting: the same measure for YTELGQCSVFPATDAPEQFISQVT [A2T]: 2.25; for YGELGQCSVFPATDAPEQFISQVT [A2G]: 3.29; for YAERGQCSVFPATDAPEQFISQVT [L4R]: 1.99.
Turning to YAEQGQCSVFPATDAPEQFISQVT [L4Q], the protein stability index was 3.62.
Take YAEWGQCSVFPATDAPEQFISQVT [L4W]: the protein stability index worked out at 3.19.
For the variant YAEMGQCSVFPATDAPEQFISQVT [L4M], the protein stability index came to 2.11.
The same measure, in the same setting: next, YAELGQCSVFPATDAPEQFIGQVT [S21G]: 2.26.
Same read-out and setting: next, YAELGQCSVFPATDAPEQFICQVT [S21C]: 1.53; YAELGQCSVFPATDAPEQFIDQVT [S21D]: 2.72; YAELGQCSVFPATDAPEQKISQVT [F19K]: 2.97.
The same measure, in the same setting: next, YAELGQCSVTPATDAPEQFISQVT [F10T]: 3.47.
Regarding YAELGQCSVEPATDAPEQFISQVT [F10E], the protein stability index was 3.68.
The same measure, in the same setting: next, YATLGQCSVFPATDAPEQFISQVT [E3T]: 1.98; YAMLGQCSVFPATDAPEQFISQVT [E3M]: 1.97; YAPLGQCSVFPATDAPEQFISQVT [E3P]: 2.27.
Still for that read-out and setting: next, YALLGQCSVFPATDAPEQFISQVT [E3L]: 1.43; YAELGQCSVFPATDAIEQFISQVT [P16I]: 1.74.
The same measure, in the same setting: the same measure for YAELGQCSVFPATDAFEQFISQVT [P16F]: 1.64; for YAELGQCSVFPATDAWEQFISQVT [P16W]: 2.84.
With YAELGQCSVFPATDAMEQFISQVT [P16M], the protein stability index was found to be 1.91.
On the same count and under the same terms, the same measure for YAELGQCSVFPATDLPEQFISQVT [A15L]: 2.31.
On the same count and under the same terms, the same measure for YAELGQCSVFPATDFPEQFISQVT [A15F]: 1.98; for YAELGQCSVFPATDCPEQFISQVT [A15C]: 2; for YAELGQCSVFPATDYPEQFISQVT [A15Y]: 2.13.
Still for that read-out and setting: the same measure for YAELGQCSVFPATDSPEQFISQVT [A15S]: 1.83; for YAELGQCSVFPAIDAPEQFISQVT [T13I]: 1.81.
Regarding YAELGQCSVFPATDAPEQFWSQVT [I20W], the protein stability index is 1.27.
Same read-out and setting: the same measure for YAELGQCSVFPATDAPEQFKSQVT [I20K]: 2.15; for YAELGQCSVFPATDAPEQFPSQVT [I20P]: 2.24; for YAELGQCSVFPATDAPEQFFSQVT [I20F]: 2.54.
Regarding YAELGQCSVFPATDAPEQFYSQVT [I20Y], the protein stability index came to 1.7.
Consider YAELGQCSVFPYTDAPEQFISQVT [A12Y], for which the protein stability index worked out at 1.95.
Consider YAELGQCSVFPFTDAPEQFISQVT [A12F], for which the protein stability index is 2.18.
Still for that read-out and setting: next, YAELGQCSVFPITDAPEQFISQVT [A12I]: 2.07.
Still for that read-out and setting: the same measure for YAELGQCSVFPTTDAPEQFISQVT [A12T]: 2.22.
On the same count and under the same terms, the same measure for YAELGQCHVFPATDAPEQFISQVT [S8H]: 1.83; for YAELGQCTVFPATDAPEQFISQVT [S8T]: 2.28; for YAELGQCKVFPATDAPEQFISQVT [S8K]: 2.04.
For the variant YAELGQCSVFPATDAPEQFISVVT [Q22V], the protein stability index turned out to be 2.81.
Same read-out and setting: the same measure for YAELGQCSVFPATDAPEQFISPVT [Q22P]: 2.47.
Still for that read-out and setting: the same measure for YAELGQCSVFPATDAPEQFISEVT [Q22E]: 3.2; for YAELLQCSVFPATDAPEQFISQVT [G5L]: 1.57.
The same measure, in the same setting: next, YAELQQCSVFPATDAPEQFISQVT [G5Q]: 2.53; YAELGQCSVFPATDAPEEFISQVT [Q18E]: 2.87; YAELGQCSVFPATDAPEWFISQVT [Q18W]: 2.21.
For the variant YAELGQCSVFPATDAPENFISQVT [Q18N], the protein stability index was found to be 2.73.
The same measure, in the same setting: the same measure for YAELGQCSVFPATDAPEPFISQVT [Q18P]: 2.01.
On the same count and under the same terms, next, YAELGQCSVFPATDAPELFISQVT [Q18L]: 2; YAELGQCSVFPATDAPEAFISQVT [Q18A]: 1.87.

Variants of B2 are the subject of another data set. The data set is described as above. The following applies: c terminus: a fixed tail appended.
Turning to YEGTGSPPKWQIGEQEFEALMRML [G1Y], the protein stability index came to 3.13.
Still for that read-out and setting: the same measure for TEGTGSPPKWQIGEQEFEALMRML [G1T]: 2.94; for NEGTGSPPKWQIGEQEFEALMRML [G1N]: 3.51.
On the same count and under the same terms, the same measure for WEGTGSPPKWQIGEQEFEALMRML [G1W]: 2.54; for VEGTGSPPKWQIGEQEFEALMRML [G1V]: 2.49; for DEGTGSPPKWQIGEQEFEALMRML [G1D]: 3.66.
Still for that read-out and setting: the same measure for LEGTGSPPKWQIGEQEFEALMRML [G1L]: 3.32.
Regarding SEGTGSPPKWQIGEQEFEALMRML [G1S], the protein stability index was found to be 2.99.
Same read-out and setting: the same measure for REGTGSPPKWQIGEQEFEALMRML [G1R]: 3.26; for FEGTGSPPKWQIGEQEFEALMRML [G1F]: 3.06.
Still for that read-out and setting: next, MEGTGSPPKWQIGEQEFEALMRML [G1M]: 2.71; HEGTGSPPKWQIGEQEFEALMRML [G1H]: 3.1; PEGTGSPPKWQIGEQEFEALMRML [G1P]: 3.26.
On the same count and under the same terms, next, EEGTGSPPKWQIGEQEFEALMRML [G1E]: 3.57; AEGTGSPPKWQIGEQEFEALMRML [G1A]: 3.28.
As to QEGTGSPPKWQIGEQEFEALMRML [G1Q], the protein stability index was found to be 3.24.
Still for that read-out and setting: the same measure for IEGTGSPPKWQIGEQEFEALMRML [G1I]: 2.92; for CEGTGSPPKWQIGEQEFEALMRML [G1C]: 2.88; for KEGTGSPPKWQIGEQEFEALMRML [G1K]: 2.91.
